We go through seven substances from article PMC8856733.

What all share (assay): SEC
Experiment [1] has as its target human glycyl-tRNA synthetase (GlyRS) C157R, CMT mutant (human).
The target in experiment [2] is human glycyl-tRNA synthetase (GlyRS) E71G, CMT mutant (human).
Experiment [3] concerns the target human glycyl-tRNA synthetase (GlyRS) E279D, CMT mutant (human).
For experiment [4], the target named is human glycyl-tRNA synthetase (GlyRS) G240R, CMT mutant (human).
Experiment [5] has as its target human glycyl-tRNA synthetase (GlyRS) G526R, CMT mutant (human).
For experiment [6], the target named is human glycyl-tRNA synthetase (GlyRS) L129P, CMT mutant (human).
The target of experiment [7] is human glycyl-tRNA synthetase (GlyRS), wild type (human).

As to “human glycyl-tRNA synthetase (GlyRS) C157R, CMT mutant (enzyme)”, the stoichiometry N in experiment [1] is 2.
“human glycyl-tRNA synthetase (GlyRS) E71G, CMT mutant (enzyme)” returned a stoichiometry N in experiment [2] of 2.
Consider “human glycyl-tRNA synthetase (GlyRS) E279D, CMT mutant (enzyme)”, for which the stoichiometry N in experiment [3] is 2.
In experiment [4], “human glycyl-tRNA synthetase (GlyRS) G240R, CMT mutant (enzyme)” came in with a stoichiometry N of 2.
Substance “human glycyl-tRNA synthetase (GlyRS) G526R, CMT mutant (enzyme)” came in with a stoichiometry N in experiment [5] of 2.
Take “human glycyl-tRNA synthetase (GlyRS) L129P, CMT mutant (enzyme)”: the stoichiometry N in experiment [6] was 2.
With “human glycyl-tRNA synthetase (GlyRS), wild type (enzyme)”, the stoichiometry N in experiment [7] was found to be 2.

A word on the stoichiometry N: it is the number of molecules, sites or subunits per partner or assembly.
